Data published in paper PMC6356842 (Toxins, 2019).
Residue numbers refer to the chain shown, from its start. Names and notes keep the numbering of the source.

How the values were obtained:
Details in all cases: both partners purified
[1] = biological target: T1, Cn2 toxin (Centruroides noxius); test: SPR
T1 construct: source: purified from scorpion venom

[2] = biological target: T2, Cll2 toxin (Centruroides limpidus); test: SPR
T2 construct: source: purified from scorpion venom
T2 chain: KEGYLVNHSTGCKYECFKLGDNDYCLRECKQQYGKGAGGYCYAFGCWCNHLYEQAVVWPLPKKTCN

[3] = biological target: T3, Ct1a toxin (Centruroides tecomanus); test: SPR
T3 construct: source: purified from scorpion venom
T3 chain: T2 chain with K30R, N49T

[4] = biological target: T4, Cll1 toxin (Centruroides limpidus); test: SPR
T4 construct: source: purified from scorpion venom
T4 chain: T2 chain with L5I, H8L, F17Y, N49T, N66T

[5] = biological target: T5, Css4 toxin (Centruroides suffusus, UniProt P60266); test: SPR
T5 construct: source: purified from scorpion venom

[6] = biological target: T6, CeII9 toxin (Centruroides elegans)
T6 construct: also called Cell9; source: purified from scorpion venom
T6 chain: T2 chain with K30R, Q32K, N49T

[7] = biological target: T7, Css2 toxin (Centruroides suffusus)
T7 construct: source: purified from scorpion venom
T7 chain: T2 chain with N7S, H8K, F17L, G36S, A37S, G45A, N49T, K62N

[8] = biological target: T1, Cn2 toxin; test: SPR; remark: listed apart in the source
[9] = biological target: T7, Css2 toxin; test: SPR

B1: scFv 10FG2 (scFv, V domains shown)
VH: QVNLRESGGGLVQPGGSLRLSCAASGFSFGSYGMHWVRQAPGKGLEWVAVISYGGGSKYYADSVKGRFTISRDNSKNTLYLQMNSLRAEDTAVYYCAKDARDCLLCSDWTFDLWGRGTLVTVSS
VL: NFMLTQPHSASGTPGQRVTISCSGSSSNIGSNTVNWYRHLPGSAPELLIGSHNQRPSGVPDRFSGSKSGTSASLAISGLQSEDEADYYCAAWDDSTLGYVFGTGTKLTVL
notes: also called 10F5; scFv 10F5
For B1, the Kd [1] was 0.7 nM, the “TR (time of residence)” value [1] was 163 min and the koff [1] was 0.000102 s⁻¹. For the same binder, the kon [1] was 150000 M⁻¹ s⁻¹, the Kd [2] was 4.2 nM and the “TR (time of residence)” value [2] was 18.5 min. The koff [2] was 0.0009 s⁻¹, the kon [2] was 220000 M⁻¹ s⁻¹ and the Kd [3] was 8 nM. For the same binder, the “TR (time of residence)” value [3] was 16.7 min, the koff [3] was 0.001 s⁻¹ and the kon [3] was 170000 M⁻¹ s⁻¹. For the same binder, the Kd [4] was 0.23 nM, the “TR (time of residence)” value [4] was 264 min and the koff [4] was 6.3e-05 s⁻¹. The kon [4] was 265000 M⁻¹ s⁻¹, the binding result [5] was “binds” and the Kd [6] was 6.1 nM. For the same binder, the koff [6] was 0.000925 s⁻¹, the kon [6] was 150000 M⁻¹ s⁻¹ and the Kd [7] was 2.75 nM. For the same binder, the koff [7] was 0.00055 s⁻¹ and the kon [7] was 195000 M⁻¹ s⁻¹.

B2: scFv 10F4 (scFv, V domains shown)
VH: B1 VH with T110N
VL: B1 VL
B2: binds [8]; binds [5]; binds [9].

B3: scFv 10F1 (scFv, V domains shown)
VH: B1 VH with S107A
VL: B1 VL with S25I
notes: VH, linker (G125 to S139), VL on one chain; numbers run through the whole scFv; 10F with A204G; source: expression vector pSyn1, purified (Ni2+-NTA, Superdex 75 gel filtration), monomer
B3: binds [8]; binds [5]; binds [9].

B4: scFv 10F (scFv, V domains shown)
VH: B1 VH with S107A
VL: B1 VL with S25I, G65A
B4: binds [8].
